Laboratory results from the nanobody polyreactivity screen of Harvey et al. (2022).

Experiment: yeast display, Sf9 membrane polyspecificity reagent, FACS + sequencing; frameworks hold sequencing errors
Method in brief: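 Using colony PCR, genes from sorted yeast display clones were amplified, then sequenced on MiSeq at 2 × 250 and filtered by CDR length. The clones had been stained with 10% biotinylated, detergent-solubilized Sf9 membrane reagent for 1 hour at 4 °C and sorted by FACS into low and high (top ~1%) gates on anti-HA and streptavidin fluorescence. Polyreactivity labels come from the gate of origin.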

Sequence	polyreactivity (PSR sort gate)
QVQLVESGGGLVQAGGSLRLSCAASGFTFVYYAMGWYRQAPGKERELVAAISQSGSSTYYADSVKGRFTISRDNPKNTVYLQMNSLKPEDTAVYYCNVYYASRPTYDFGYWGQVTQVTVSS	high polyreactivity
QVQLVESGGGLVQAGGSLRLSCAASGFTFVYYAMGWYRQAPGKERELVAAITSADSTNYADSVKGRFTISRDNAKNTVYLQMNSLKPEDTAVYYCNAVYDYYRQSKWTMVYWGQGTQVTVSS	low polyreactivity
QVQLVESGGGLVQAGGSLRLSCAASGFTFVYYAMGWYRQAPGKERELVATISGNGGRTYYADSVKGRFTISRDNAKNTVYLQMNSLIPDDTAVYYCATDVGFGRKQRPHRPGYGYWGQGTLVTVSS	low polyreactivity
QVQLVESGGGLVQAGGSLRLSCAASGFTFVYYAMGWYRQAPGKERELVPAISWNGGSTYYADSVKGRFTISRDNAKNTVYLQMNCLKPEDTAVYYCAAEYSYRLLQTFYYPYGYWGQGTQVTVSS	high polyreactivity
QVQLVESGGGLVQAGGSLRLSCAASGFTFVYYTMGWYRPAPWKERELVAAITWRGSTYYADSVKGRFTISRDNAKNTVYLQMNSLKPEDTAVYYCAARYRVLLRHREYDYWGQGTQVTVSS	high polyreactivity
QVQLVESGGGLVQAGGSLRLSCAASGFTFVYYVMGWYRQAPGKERELVAAINAGGGSTYYADSVKGRFTISRDNAKNTVYLQMNSLKPEDTAVYYCNARVRVRLGRKWSSYYYWGQGTQVTVSS	high polyreactivity
QVQLVESGGGLVQAGGSLRLSCAASGFTFWGYGMGWYRQAPGKERELVAAISGSGGSTYYADSVKGRFTISRDNAKNTVFLQMNSLKRKIPRSITALLFTVNGGGSRSHDYWAQGTQVTVSS	low polyreactivity
QVQLVESGGGLVQAGGSLRLSCAASGFTFWQYAMGSSRTAPGKERELVAAISSRGGSTYYADSVKGRFTISRDKAKNTVYLQMNSLKPEDTAVYYCNARANGFKDGYWGQGTQVTVSS	high polyreactivity
QVQLVESGGGLVQAGGSLRLSCAASGFTFWQYTMGWYRQAPGKERELVAAITSSGGSTYYADSVKGRFTISRDNAKNTVYLQMNSLKPEDTAVYYCAADGWGYSFQWQDHDYWGQGTQVTVSS	low polyreactivity
QVQLVESGGGLVQAGGSLRLSCAASGFTFWRYAMAWYRQAPWKERDLVAAISRTGGRTYYADSVKGRFTISRDNAKNTVYLQMNSLKPEDTAVDYCAAVKYETYRYNYDYWGQGTQVTVSS	high polyreactivity
QVQLVESGGGLVQAGGSLRLSCAASGFTFWRYTMGWYRQAPGKERELVAAINWSGGRTYYADSVKGRFTISRDNAKNTVYLQMNSLKPEDTAVYYCATGYSTSVGGSQGDSWGQGTQVTVSS	high polyreactivity
QVQLVESGGGLVQAGGSLRLSCAASGFTFWRYTMGWYRQAPGKERELVATIRRGTSTNYADSVKGRFTISRDNAKNTVYLQMNSLKPEDTAVYYCAADPWRYYVEYDYWGQGTQVTVSS	high polyreactivity
QVQLVESGGGLVQAGGSLRLSCAASGFTFWTYAMGWYRQAPGKERELVAAIDSGGSTYYADSVKGRFTISRDNAKNTVYLQMHSLKPEDTAVYYCNAGPSVTSGYDYDYWGQGTQVTVSS	low polyreactivity
QVQLVESGGGLVQAGGSLRLSCAASGFTFWTYPMGWYIQAPGKERELVAAIDSGGSTYYADSVKGRFTISRDNAKNTVYLQMNSLKPEDTAVYYCNAGPSVTSGYDYDYRGQGTQVTVSS	low polyreactivity
QVQLVESGGGLVQAGGSLRLSCAASGFTFWYNAMGWYRQAPGKERELVAAISKSGGSTYYADSVKGRFTISRDNAKNTVYLQMNILKPEDTAVYYCAARLPYNRYNYWGQGTQVTVSS	high polyreactivity
QVQLVESGGGLVQAGGSLRLSCAASGFTFWYYAMGWYRQAPGKERELVADISTRGGSTYYADSVKGRFTISRDNAKNTVYLQMNSLKPEDTAVYYCAAKYARNLAGDDPYDYWGQGTQVTVSS	high polyreactivity
QVQLVESGGGLVQAGGSLRLSCAASGFTFWYYAMGWYRQAPGKERELVARITSRGADTYADSVKGRFTISRDNAKNTVYLQMNSLKPEDTAVYDCNADIISVSVYYFIVEYDYWGQGTQVTVSS	low polyreactivity
QVQLVESGGGLVQAGGSLRLSCAASGFTFWYYAMGWYRQAPGKERELVATITSGGRTSYADSVKGRFTISRDNAKNTVYLQMNSLKPEDTAVYYCAAVARYTPGYGYWGQGTQVTVSS	high polyreactivity
QVQLVESGGGLVQAGGSLRLSCAASGFTFYAYAMGWYRQAPGKERELVAAISRTGGRTYYADSVKGRFTISRDNAKNTVYLQMNSLKPEDTAVYYCNRAGLHSTGYDYWGQGTQVTVSS	high polyreactivity
QVQLVESGGGLVQAGGSLRLSCAASGFTFYAYAMGWYRQAPGKERELVAAITWSGGRTYYADSVKGRFTISRDNAKNTVYLQMNSLKPEDTAVYYCAKRYWGQARYHTGHDYWGQGTQVTVSS	high polyreactivity
QVQLVESGGGLVQAGGSLRLSCAASGFTFYDKAMGWNRQAPGKERELVAAINCRSGSTYYADSVKGRFTISRDTAKNTVYLQMNSLKPEDTAVYYCASGLVFHYYAPKSYYLRYDYWGQGTQVTVSS	low polyreactivity
QVQLVESGGGLVQAGGSLRLSCAASGFTFYDYVMGWYRQAPGKERELVASISARTGSTYYADSVKGRFTISRDNAKNTVYLQMNSLQPEDTAVYYCAADDGQYYRTEYDYWGQGTQVTVSS	low polyreactivity
